Assays:
[1] = system: NF-κB; test: Ex vivo bioluminescent imaging of organs, LPS-induced NF-κB/luc transgenic mice; assay type: in vivo
Protocol: The mice of the three groups manipulated in example 3 were abdominally injected with 150 mg/Kg luciferin. After luciferin injection for 5 minutes, the mice were sacrificed and the tissues including brain, heart, lung, liver, spleen, stomach, kidney, ovary and intestine were rapidly removed. The collected tissues were placed in the IVIS Imaging System-200 Series (Xenogen, Hopkinton, Mass.) and imaged with the same setting used for in vivo bioluminescent imaging.
In the table 2, the average of luciferin value in the mice of the group 2 was divided to average of luciferin value in the mice of the group 1 to obtain the fold change. In table 3, the average of luciferin value in the mice of the group 3 was divided to the average of luciferin value in the mice of the group 2 to obtain the fold change.

[2] = system: IL-1β; test: Immunohistochemistry staining of organs, LPS-induced mice; assay type: in vivo; settings: group 3 vs group 2 (LPS)
Sequence of IL-1β (P10749 118-269): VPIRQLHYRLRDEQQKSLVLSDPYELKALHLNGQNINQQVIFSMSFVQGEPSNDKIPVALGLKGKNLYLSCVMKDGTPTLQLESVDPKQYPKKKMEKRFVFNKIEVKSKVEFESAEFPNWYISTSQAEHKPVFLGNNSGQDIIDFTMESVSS
Protocol: (§1) Immunohistochemistry (IHC) would be known by an ordinary person skilled in the art. The organs were collected from the mice of the each group for paraffin embedding and histology section. The parafilm-embedded organs were cut into […] sections, deparaffinized in xylene and then rehydrated in graded alcohol. Endogenous peroxidase was quenched with 3% hydrogen peroxide in methanol for 15 mins and the nonspecific binding was blocked with 1% bovine serum albumin at room temperature for 1 hour. The blocked sections were further incubated with 50-folds diluted mouse monoclonal antibodies against p56, TNF-α or IL-1β proteins at 4° C. for 16-18 hours, respectively and then incubated with biotinylated secondary antibodies (Zymed Laboratories, South San Francisco, Calif.) that against the Fc fragment of the co-responding first antibody at room temperature for 20 minutes. Finally, the slides were incubated with avidin-biotin complex reagent and stained with 3,3′-diaminobenzidine according to manufacturer's protocol (Histostain®-Plus Kit, Zymed Laboratories, South San Francisco, Calif.).

[3] = system: TNF-α; test: as above; assay type: in vivo; settings: group 3 vs group 2 (LPS)
Protocol: as §1

[4] = Fat accumulation in genetic deficient mice with massive abdominal fat; assay type: in vivo
Protocol: The mice were divided into control group and experimental group. […] In addition, the mice in the control group were peritoneally injections with 100 ul of PBS.
During the treatment period, the body weight and dietary intake of the mice were recorded at the regular time points. After the treatment, the gross views of whole animals were recorded by photographing. In the following, the fat pads of the mice were collected for the measurement of fat pad weight. The histological examination was performed to determine the number and size of the adipocytes in the mice of the both groups. Furthermore, the percentage of body fat was calculated according the formulation: (fat weight/body weight)×100%, and shown in table 4.

[5] = Muscle histology (H&E) in genetic deficient mice; assay type: in vivo; settings: 2.5 nmol/kg peritoneal twice a week, 4 weeks; vs control mice
Text: Collecting the muscles from the mice of the both groups stated in example 5. The collected muscles were for histological examination. In the histology examination, the cell number and cellular size of the muscular tissue were examined by H&E staining and microscopy observation.

[6] = Survival, diabetes incidence and retinopathy in NOD mice; assay type: in vivo; settings: 20 weeks; for Incidence of diabetes, mice/mice: control 2/6; for Diabetes-induced retinopathy, mice/mice: control 3/6; for Survival rate, mice/mice: control 4/6
Protocol: 23 mice were divided into four groups with different administrations for 20 weeks, wherein 6 mice of the group 1 were control mice that were daily orally administrated with 20 μl of PBS. 6 mice of the group 2 were daily orally administrated with 20 μl of 0.01 umol/kg solution that contained the present polypeptide comprising the amino acid sequence of SEQ ID No. 1. 6 mice of the group 3 were daily orally administered with 20 μl of 0.1 umol/kg solution that contained the present polypeptide comprising the amino acid sequence of SEQ ID No. 1. 5 mice of the group 4 were daily orally administrated with 20 μl of 1 umol/kg solution that contained the present polypeptide comprising the amino acid sequence of SEQ ID No. 1.
During the administration period, the survival rate, incidence of diabetes and diabetes-induced retinopathy in the each group were measured and shown in table 5. After the administration, the blood samples were collected for serological and biochemical analysis.

[7] = system: Muscle (IGF and adipocytokine signaling pathway genes); settings: 2.5 mmol/kg daily, 7 days
Protocol: (§2) The wild-type FVB mice were divided into the control group and the experimental group, wherein the mice in the experimental group were daily administered with 20 μl peptide-containing solution that contains 2.5 mmol/kg of the present peptide for 7 days. Moreover, the mice in the control group were daily administrated with 20 μl PBS solution for 7 days.
(§3) After the daily administration, the tissues of column, muscle, fat pad, liver and kidney were collected for analyzing the expression of multiple targets by system biology analysis. Herein, the altered expressions of the targets in the genome were determined by using DNA microarray which is a well-established tool for systematic biology analysis. Furthermore, the results of the DNA microarray were further categorized and analyzed by bioinformatics analysis to determine the effect and affected signaling pathways of the present polypeptide.
(§4) (1) RNA preparation: The total RNA was extracted from the tissue by using RNeasy Mini Kit (Qiagen, Valencia, Calif., USA). The amount of the extracted total RNA was measured by Beckman DU800 spectrophotometer (Beckman Coulter, Fullerton, Calif., USA). In the next step, the quality of the RNA sample with A260/A280 ratio more than 1.8 was further evaluated by Agilent 2100 bioanalyzer (Agilent Technologies, Santa Clara, Calif., USA). When with the RNA integrity number of the sample is more than 8.0, it would be analyzed by the following microarray analysis.
(§5) (2) DNA microarray analysis: The procedure of DNA microarray analysis was conducted according to the reference (Cheng, 2007). Briefly, 5 μg of total RNA was amplified by in vitro transcription using MessageAmp™ aRNA kit (Ambion). In the following, the fluorescence dye, Cy5, was chemically labeled on the amplified RNA (aRNA). After the labeling, the fluorescence labeled aRNA was hybridized with Whole Genome OneArray™ in hybridization buffer (Phalanx Biotech Group, Taiwan) on cover slide. Following the hybridization reaction at 50° C. over-night, the non-specific binding on the chip was washed by three washing steps. The washed chip was dried by centrifugation and was scanned by Axon 4000 scanner (Molecular Devices, Sunnyvale, Calif., USA) to measure the fluorescence signals. The fluorescence intensity of Cy5 on each spots was further analyzed by genepix 4.1 (Molecular Devices). First, the signals of each spot were adjusted by deducting the intensity of background. In the next step, the spots including the probes of internal controls or the spots with the signal-to-noise ratios less than 0 would be removed. The qualified spots were normalized by limma package which is belonged to R console (Smyth, 2005).

[8] = system: Fat pad (fatty acid metabolism genes); settings: Up-regulated, 2.5 mmol/kg daily, 7 days
Protocol: as §2, §3, §4, §5

[9] = group 3 (LPS + 0.5 mg/Kg polypeptide IP) vs group 2 (LPS), down-regulation
[10] = group 3 (LPS + 0.5 mg/Kg polypeptide IP) vs group 2 (LPS), up-regulation
[11] = experimental group vs control group, in words
[12] = Group 2: 0.01 umol/kg daily oral
[13] = Group 3: 0.1 umol/kg daily oral
[14] = Adipocytokine signaling pathway, Down-regulated
[15] = IGF signaling pathway, Up-regulated

B1: present polypeptide: polypeptide comprising the amino acid sequence of SEQ ID No. 1; made by peptide synthesis, recombinant expression or extraction from Momordica charantia (peptide, listed as Artificial synthsis)
chain: SRCQGKSSWPQLVGSTGAAAKAWIERENPRVRAVIIKVGSGATKDFRCDRVRVWVTERGIVARPPTIG
- luminescent intensities detected from lung, liver, kidney and intestine ([1]; experimental group (group 3) compared with control group (group 2)): obviously decreased
- Fold change of the luciferin value, Intestine [1, 9]: 1.96
- Fold change of the luciferin value, Kidney [1, 9]: 1.08
- Fold change of the luciferin value, Liver [1, 9]: 1.57
- Fold change of the luciferin value, Lung [1, 9]: 1.68
- Fold change of the luciferin value, Brain [1, 10]: 1.40
- Fold change of the luciferin value, Heart [1, 10]: 1.13
- Fold change of the luciferin value, Ovary [1, 10]: 1.17
- Fold change of the luciferin value, Spleen [1, 10]: 1.08
- Fold change of the luciferin value, Stomach [1, 10]: 1.11
- brown zone (active IL-1β signal) in tissue, IHC [2]: obviously less than the group 2
- brown zone (active TNF-α signal) in tissue, IHC [3]: obviously less than the group 2
- Fat weight ([4]; Experimental mice, 2.5 nmol/kg peritoneal twice a week, 4 weeks, control 2.53 ± 0.19): 1.90 ± 0.41 g
- Body weight at end point ([4]; Experimental mice, 2.5 nmol/kg peritoneal twice a week, 4 weeks, control 71.95 ± 6.25): 72.54 ± 7.24 g
- Body fat ([4]; Experimental mice, (fat weight/body weight)×100%, control 3.68 ± 0.16): 2.74 ± 0.21%
- fat weight compared with control group [4, 11]: obviously decreased
- percentage of body fat compared with control group [4, 11]: obviously decreased
- muscular dystrophy (H&E histology of muscle) [5]: improved the muscular dystrophy
- Incidence of diabetes, mice/mice [6, 12]: 0/6
- Diabetes-induced retinopathy, mice/mice [6, 12]: 0/6
- Survival rate, mice/mice [6, 12]: 6/6
- Incidence of diabetes, mice/mice [6, 13]: 0/6
- Diabetes-induced retinopathy, mice/mice [6, 13]: 1/6
- Survival rate, mice/mice [6, 13]: 6/6
- Incidence of diabetes, mice/mice ([6]; Group 4: 1 umol/kg daily oral): 1/5
- Diabetes-induced retinopathy, mice/mice ([6]; Group 4: 1 umol/kg daily oral): 1/5
- Survival rate, mice/mice ([6]; Group 4: 1 umol/kg daily oral): 5/5
- Fold, Acsl1 [7, 14]: 4.56 folds
- Fold, Akt1 [7, 14]: 1.57 folds
- Fold, Cd36 [7, 14]: 2.42 folds
- Fold, Nfkbia [7, 14]: 2.55 folds
- Fold, Prkag1 [7, 14]: 1.93 folds
- Fold, Ptpn11 [7, 14]: 2.31 folds
- Fold, Stat3 [7, 14]: 1.55 folds
- Fold, Adprt1 [7, 15]: Up-regulated 1.9 folds
- Fold, Cabin1 [7, 15]: Up-regulated 2.4 folds
- Fold, Igfbp5 [7, 15]: Up-regulated 1.9 folds
- Fold, Irs1 [7, 15]: Up-regulated 3.7 folds
- Fold, Map2k2 [7, 15]: Up-regulated 1.6 folds
- Fold, Mdk [7, 15]: Up-regulated 3.4 folds
- Fold, Mmp13 [7, 15]: Up-regulated 3.0 folds
- Fold, Myh1 [7, 15]: Up-regulated 3.2 folds
- Fold, Nfatc3 [7, 15]: Up-regulated 1.5 folds
- Fold, Pik3r1 [7, 15]: Up-regulated 1.8 folds
- Fold, Rps6kb1 [7, 15]: Up-regulated 4.7 folds
- Fold, Spp1 [7, 15]: Up-regulated 3.6 folds
- Fold, Twist 1 [7, 15]: Up-regulated 2.1 folds
- Fold, Vegfa [7, 15]: Up-regulated 1.5 folds
- Fold, Acox1 [8]: Up-regulated 2.0 folds
- Fold, Acsl4 [8]: Up-regulated 5.1 folds
- Fold, Cpt1a [8]: Up-regulated 3.1 folds
- Fold, Cpt2 [8]: Up-regulated 1.5 folds
- Fold, Hsd17b4 [8]: Up-regulated 1.7 folds
- Fold, Sirt1 [8]: Up-regulated 3.0 folds
